This note sets out measurements from US9719113B2 (priority 2014, dated 2017).

One data set deals with QH4 strain. The note with it: SA added to cell cultures at 0-1000 mg/L; QH4 cells.
The nature of data set [1]: Screening SMOs in vivo (conversion of SA to catechol by whole cells). The class given is cell-based. The note with it: E. coli BW25113 carrying pZE12-luc expression vector, 2 mM SA, 37° C., catechol formation rate. The method, then:
To evaluate the activity of enzymes converting SA to catechol, E. coli BW25113 was transformed with the expression vectors pZE-ppbenABCD, pZE-paantABC, pZE-pfantABC and pZE-NahG, separately. The resultant transformants were inoculated in 3 ml LB liquid medium containing 100 μg/ml of ampicillin and grown aerobically at 37° C. The overnight cultures were inoculated into 20 ml fresh LB medium and left to grow at 37° C. till OD600 reached 0.6 and then induced with 0.25 mM of IPTG at 37° C. for additional 3 h. Then the cells were harvested, and re-suspended in M9Y medium (OD600=2.1-2.7). SA was added into the cell suspension to a final concentration of 2 mM. The flasks were incubated with shaking at 37° C. for 10 min for the SMO encoded by nahG^opt and 1 h for ppBenABCD, paAntABC, and pfAntABC. Samples were taken by removing cell pellets and the product (catechol) concentrations were measured with HPLC. The in vivo activity was expressed as μM/min/OD.
Following the reconstitution and optimization of an SA biosynthetic pathway, our subsequent effort was focused on constructing the SA degradation pathway. SMO catalyzes the first enzymatic step of SA degradation, and thus it is of great importance to have an efficient SMO available for the pathway assembly. […] A putative SMO (encoded by nahG) was identified from the genome of P. putida DOT-T1E. […]

Data set [2] is described as follows: In vitro SMO enzyme assay. The class given is biochemical, P. putida DOT-T1E. The note with it: purified His-tagged enzyme 0.97 nM. On the procedure: (A) Kinetic parameters of the SMO. The Km and Vmax values were estimated with OriginPro8 through non-linear regression of the Michaelis-Menten equation. The protein concentration [E] of the SMO in the reaction systems was 0.97 nM. The kcat value was calculated according to the formula kcat=Vmax/[E]. […] (B) Conversion of SA to MA using the wild type E. coli strain carrying pZE-NC. […] Error bars are defined as s.d.
To express and purify the enzyme, E. coli BL21 Star (DE3) was transformed with the expression plasmid pET-NahG. A fresh transformant was inoculated in 3 ml LB medium containing 100 μg/ml of ampicillin and grown aerobically at 37° C. Overnight cultures were inoculated into 50 ml fresh LB medium and left to grow at 37° C. till OD600 reached 0.6 and then induced at 30° C. with 0.5 mM IPTG for another 3 h. Cells were then harvested and lysed by French Press. The recombinant protein with an N-terminal multi-histidine tag was purified using His-Spin protein miniprep kit (ZYMO […]). The enzyme concentration was measured using BCA kit (Pierce Chemicals). The standard enzyme assay was performed by making an assay mixture containing 500 μM NADH, 10 μM FAD, 0.97 nM purified enzyme, and SA as the substrate. The final volume was adjusted to 1 ml with Kpi buffer (20 mM, pH=7.0). […] The reaction rates were calculated by measuring the formation of catechol via HPLC. […]

Description for QH4 strain: All data points are reported as mean±s.d. from three independent experiments. […] All data points are reported as mean±s.d. from two independent experiments.

Regarding `O=C(O)c1ccccc1O` [SA, salicylic acid], the “SA concentration that completely inhibited the cell proliferation” value in the data set with QH4 strain amounted to 1000 mg/L.

B1: nahG^opt: salicylate 1-monoxygenase (SMO) from P. putida DOT-T1E, encoded by codon-optimized gene nahG^opt (protein, listed as Escherichia coli)
chain: MQNSTSALNVSIIGGGIAGVALALDLCRHAHLNVQLFEAAPAFGEVGAGVSFGANAVRAIAGLGIAEPYGKIADSNPAPWQDIWFEWRNGRDAKYLGCSVAEGVGQSSVHRADFLDALASQLPDGIAQFGKRAQRVEQDGEQVRVTFTDGSEHRCDLLIGADGIKSSIRDHVLQGLNQPLASPRFSGTCAYRGLIDSQQLREAYRARGVDEHLIDVPQMYLGLDGHILTFPVKQGRLINVVAFISDRSQPNPVWPSDTPWVRNATQAEMLAAFEGWDDAAQVLLECIPTPSLWALHDLAELPGYVHGRVGLIGDAAHAMLPHQGAGAGQGLEDAWLLARLLEDPKVLDKRPQAVLDAYDAVRRPRACRVQRTSFEAGELYEFRDPAVLADEERLGKVLAERFDWLWNHDMQEDLLQARELLGLRAQAA
By Km is commonly meant the substrate concentration at which the rate is half of its maximum. A word on the kcat: it is the maximal rate divided by the concentration of active sites. B1: the figures for the In vivo activity in data set [1] and in data set [1] (listed as SMO encoded by nahG^opt) were 54.78 ± 1.65 μM/min/OD and 54.78 μM/min/OD, respectively. In addition, the Km in data set [2] (SA 0 to 100 μM, 500 μM NADH, 10 μM FAD, pH 7.0, 37° C.) came to 4.37 µM. The kcat in data set [2] (substrate SA, kcat=Vmax/[E]) was determined as 96.56 s⁻¹.
